Experimental data: patent publication US20090214565A1 (BAYLOR RESEARCH INSTITUTE, published 2009)

Biological target: PBMC-flu supernatant
Assay: cell-based or functional assay

B1: ACO-1 (antibody, V domains shown)
VH: QVQLQQPGAELVKPGASVKLSCKASGYTFTNYWMHWVKQRPGQGLEWIGEINPSHGRTIYNENFKSKATLTVDKSSITAFMQLSSLTSEDSAVYFCARGGLGPAWFAYWGQGTLVTVSA
VL: QIVLTQSPAIMSASPGEKVTLTCSAGSSVDSSYLYWYQQKPGSSPKLWIYSTSNLASGVPARFSGSGSGTSYSLTISSMEAEDAASYFCHQWSSYPFTFGSGTKLEIKR
notes: also called ACO-1 monoclonal antibody; hybridoma ATCC PTA-6557
neutralization of PBMC-flu, RG bioassay: > 50%
